# Test results published in publication PMC3978073, “Flexibility of the Linker between the Domains of DNA Methyltransferase SsoII Revealed by Small-Angle X-Ray Scattering: Implications for Transcription Regulation in SsoII Restriction–Modification Syste”.
# T1: M.SsoII (C5-DNA methyltransferase SsoII) (Shigella sonnei, UniProt P34879 1-379)
# T1 sequence: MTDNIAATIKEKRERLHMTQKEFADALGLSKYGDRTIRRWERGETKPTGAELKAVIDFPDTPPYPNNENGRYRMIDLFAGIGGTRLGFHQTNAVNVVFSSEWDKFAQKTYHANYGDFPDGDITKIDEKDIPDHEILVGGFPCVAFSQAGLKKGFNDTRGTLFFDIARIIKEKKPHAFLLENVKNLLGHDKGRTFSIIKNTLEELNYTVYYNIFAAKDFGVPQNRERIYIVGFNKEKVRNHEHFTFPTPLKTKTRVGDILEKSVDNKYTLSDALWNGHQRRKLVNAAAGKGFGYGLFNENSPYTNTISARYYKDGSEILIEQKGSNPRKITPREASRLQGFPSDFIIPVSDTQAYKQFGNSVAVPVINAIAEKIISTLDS
# Biological target: T1, M.SsoII (C5-DNA methyltransferase SsoII)
# Experiment: EMSA (native PAGE, EtBr and Coomassie stain); AdoHcy; M.SsoII:AdoHcy:DNA 1:2:1; Complex formation: 18 mM Tris-HCl, 136 mM NaCl, 3.5 mM beta-mercaptoethanol, 10% (w/v) glycerol, pH 8.0, with AdoHcy; temperature not stated; 7% native PAGE
# Conditions: protein: recombinant; (HisTrap purified; tag not described); blunt
binder,measurement,value
15met (dsDNA) DNA 1: AGAGCCAGGAACCGA DNA 2: TCGGTTCCTGGCTCT,binding result,binds
